Patent US10745439B2, “Kinase substrates and methods of use thereof” (REGENTS OF THE UNIVERSITY OF MINNESOTA, priority 2017, dated 2020)
Ends that are not written are not given here. * marks the point of attachment. Biotin = O=C1N[C@H]2[C@H](CS[C@H]2CCCCC(=O)*)N1

Legend:
[1] = target: Akt (Homo sapiens, UniProt P31749); assay: in vitro time-course kinase assay with Akt and Aktide biosensor (MALDI/TOF/TOF-MS readout); format: biochemical; settings: 15 nM kinase, 20 μM peptide, 100 μM ATP, 37° C., time points 0, 30, 60, 120 min; result after 2 hr
Akt, sequence (P31749 whole entry): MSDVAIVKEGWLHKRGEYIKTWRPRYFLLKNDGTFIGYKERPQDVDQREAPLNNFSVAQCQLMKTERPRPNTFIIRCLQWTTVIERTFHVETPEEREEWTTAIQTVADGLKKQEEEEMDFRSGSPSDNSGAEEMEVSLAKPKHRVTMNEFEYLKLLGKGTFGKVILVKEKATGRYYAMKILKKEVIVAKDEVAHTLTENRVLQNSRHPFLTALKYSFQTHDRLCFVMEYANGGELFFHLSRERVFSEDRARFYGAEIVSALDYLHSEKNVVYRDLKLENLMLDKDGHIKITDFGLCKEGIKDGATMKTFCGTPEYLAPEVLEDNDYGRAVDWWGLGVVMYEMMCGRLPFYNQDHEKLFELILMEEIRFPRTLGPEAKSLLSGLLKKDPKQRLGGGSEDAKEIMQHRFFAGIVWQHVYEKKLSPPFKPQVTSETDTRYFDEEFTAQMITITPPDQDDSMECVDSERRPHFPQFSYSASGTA
Protocol: FIG. 7. […] The abundance of the biosensor (labeled “Aktide”) and its phosphorylated version (labeled “phospho Aktide”) are shown over four different time points (0, 30, 60, 120 min) which represent the amount of time the peptide was incubated with the kinase.
The in vitro kinase assay was performed with Akt and Aktide biosensor (RRRRRSVDSHGGKbiotinGG (SEQ ID NO:11)). First, the kinase (15 nM final concentration) was pre-incubated in kinase reaction buffer (10 mM HEPES, 10 mM MgCl2, 0.125 ng/μL BSA, 100 μM adenosine triphosphate (ATP), pH 7.5) for 15 minutes. Then the substrate peptide, Aktide (20 μM final concentration), was added and the reaction was kept at 37° C. The reaction was monitored at different time points by removing 20 μL aliquots and quenching with 10 μL of 6 M urea at 0, 30, 60, and 120 minutes. The samples were then desalted with C18 zip tips according to the manufacturer's protocol and analyzed on an Applied Biosystems-Sciex 5800 MALDI/TOF/TOF-MS.

[2] = target: T1, LKB1 (Homo sapiens, UniProt Q15831); assay: in vitro kinase assay screen with LKB1 and candidate biosensor peptides (LC ESI-MS readout); format: biochemical; settings: 15 nM kinase, 20 μM peptide, 100 μM ATP, 37° C., 3 hr reaction
T1 sequence (Q15831 1-433): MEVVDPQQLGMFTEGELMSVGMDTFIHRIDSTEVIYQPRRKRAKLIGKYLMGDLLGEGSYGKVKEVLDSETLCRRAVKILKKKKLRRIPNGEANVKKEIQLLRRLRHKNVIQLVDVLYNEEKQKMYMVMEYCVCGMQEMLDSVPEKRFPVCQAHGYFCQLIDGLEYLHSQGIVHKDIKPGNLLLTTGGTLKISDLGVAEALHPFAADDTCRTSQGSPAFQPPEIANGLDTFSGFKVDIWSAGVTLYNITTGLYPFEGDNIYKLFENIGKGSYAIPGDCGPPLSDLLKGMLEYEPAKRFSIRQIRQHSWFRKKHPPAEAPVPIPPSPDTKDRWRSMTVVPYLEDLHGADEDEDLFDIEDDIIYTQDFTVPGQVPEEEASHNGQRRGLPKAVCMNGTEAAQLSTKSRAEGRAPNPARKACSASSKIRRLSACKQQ
T1 sequence (Q7RTN6 1-431 partner): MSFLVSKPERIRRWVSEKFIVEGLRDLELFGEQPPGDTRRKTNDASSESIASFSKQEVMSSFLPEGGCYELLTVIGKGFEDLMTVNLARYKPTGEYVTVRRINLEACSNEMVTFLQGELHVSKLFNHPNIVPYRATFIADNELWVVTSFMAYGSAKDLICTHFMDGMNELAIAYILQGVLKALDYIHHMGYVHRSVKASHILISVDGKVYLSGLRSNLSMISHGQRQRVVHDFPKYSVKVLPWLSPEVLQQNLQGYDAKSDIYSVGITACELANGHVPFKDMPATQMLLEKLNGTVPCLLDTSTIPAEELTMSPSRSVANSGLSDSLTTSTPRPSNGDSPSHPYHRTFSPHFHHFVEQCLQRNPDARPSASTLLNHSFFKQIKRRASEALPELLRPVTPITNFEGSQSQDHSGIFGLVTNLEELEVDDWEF
T1 sequence (Q9Y376 1-341 partner): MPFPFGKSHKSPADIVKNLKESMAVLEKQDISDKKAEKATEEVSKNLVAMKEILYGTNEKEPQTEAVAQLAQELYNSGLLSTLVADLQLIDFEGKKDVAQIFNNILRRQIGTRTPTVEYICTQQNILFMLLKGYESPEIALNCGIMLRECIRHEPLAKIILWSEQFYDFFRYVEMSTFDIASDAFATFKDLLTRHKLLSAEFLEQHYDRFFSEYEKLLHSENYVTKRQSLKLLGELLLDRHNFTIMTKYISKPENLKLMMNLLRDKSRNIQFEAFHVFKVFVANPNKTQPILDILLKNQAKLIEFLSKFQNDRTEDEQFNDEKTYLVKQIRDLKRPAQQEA
Protocol: FIGS. 8A-B. FIG. 8A. Results from an initial kinase assay with LKB1 testing candidate biosensor peptide substrate WHLQTWCGYGGKbiotinGG (SEQ ID NO:12). The data shown is the abundance of the peptide and its phosphorylated version (SEQ ID NO:14) after incubation with the kinase for 3 hr. FIG. 8B. Zoomed in version of the spectrum showing relative abundance.
The in vitro kinase assay screen was performed with LKB1 and the candidate biosensor sequence (WHLQTWCGYGGKbiotinGG (SEQ ID NO:12)). First the kinase, (15 nM final concentration), was pre-incubated in kinase reaction buffer (10 mM HEPES, 10 mM MgCl2, 0.125 ng/μL BSA, 100 μM adenosine triphosphate (ATP), pH 7.5) for 15 minutes. Then the substrate peptide, (20 μM final concentration), was added and the reaction was kept at 37° C. The reaction was quenched with 6 M urea and then the sample was desalted with C18 zip tips according to the manufacturer's protocol and analyzed on an Agilent 1200 series LC and Agilent 6130 quadrupole ESI-MS.

| Substance | phosphorylation of the peptide substrate by Akt (conversion to phosphorylated product) [1] | phosphorylation of the peptide substrate by LKB1 [2] |
| --- | --- | --- |
| RRRRRSVDSHGGKbiotinGG (RRRRRSVDSHGGK(Biotin)GG) [artificial Akt substrate peptide biosensor with C-terminal -GGKbiotinGG tag] | Nearly complete conversion to phosphorylated product |  |
| WHLQTWCGYGGKbiotinGG (WHLQTWCGYGGK(Biotin)GG) [candidate LKB1 biosensor peptide substrate with C-terminal -GGKbiotinGG tag] |  | partially phosphorylated |
